These results are taken from US10450368.

Assay [1] addresses HIV-1 CH505 transmitted/founder gp120 Env (HIV-1). Nature of the assay: competition ELISA, blocking of CH236 binding to CH505 TF gp120.
The target is the same in assay [2]. Nature of the assay: competition ELISA, blocking of CH106 binding to CH505 TF gp120 (self).
Assay [3] deals with CH505w136.B2D8gp120/293F (HIV-1). In words: direct-binding ELISA.
For assay [4], the target named is CH505_w137V201B12.D11gp120 (HIV-1). Nature of the assay: direct-binding ELISA.
Assay [5] has as its target CH505w160.T4D8gp120/293F (HIV-1). In words: direct-binding ELISA.
Another assay addresses CH505.M21D8gp120/293F. In words: direct-binding ELISA.
Assay [6] deals with CH505.TF mutant gp120 M8 (HIV-1). Nature of the assay: direct-binding ELISA.
The target of a further assay is SSA. Nature of the assay: AtheNA, Ab 6.25 ug/ml.
Another assay concerns the target Jo-1 (UniProt P12081). In words: AtheNA, Ab 6.25 ug/ml.
Another assay deals with SSB (UniProt P05455). In words: AtheNA, Ab 6.25 ug/ml.
Chain of SSB (P05455 whole entry): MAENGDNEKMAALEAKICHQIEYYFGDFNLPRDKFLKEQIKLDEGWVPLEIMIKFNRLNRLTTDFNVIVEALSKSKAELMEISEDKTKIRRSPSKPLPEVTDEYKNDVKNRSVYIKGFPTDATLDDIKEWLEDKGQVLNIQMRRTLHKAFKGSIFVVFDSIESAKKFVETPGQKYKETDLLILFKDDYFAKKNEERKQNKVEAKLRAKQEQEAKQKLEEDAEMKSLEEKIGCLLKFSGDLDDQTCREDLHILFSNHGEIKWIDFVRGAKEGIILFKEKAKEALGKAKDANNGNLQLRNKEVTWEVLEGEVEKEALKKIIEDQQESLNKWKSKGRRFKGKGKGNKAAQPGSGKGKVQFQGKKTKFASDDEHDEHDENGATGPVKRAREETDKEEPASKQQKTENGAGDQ
Another assay deals with RNP (ribonucleoprotein). In words: AtheNA, Ab 6.25 ug/ml.
Another assay addresses Sm (Smith antigen). In words: AtheNA, Ab 6.25 ug/ml.
The next assay concerns the target Scl-70 (UniProt P11387). Nature of the assay: AtheNA, Ab 6.25 ug/ml.
A further assay has as its target Centromere B (UniProt P07199). Nature of the assay: AtheNA, Ab 6.25 ug/ml.
The next assay addresses Histones. In words: AtheNA, Ab 6.25 ug/ml.
Assay [7] addresses HIV-1 CH505 transmitted/founder gp120 Env (HIV-1). In words: competition ELISA; competitor biotinylated CH241 on CH505 TF gp120.
A further assay addresses CH505w030.20D8gp120/293F. In words: ELISA.
The next assay has as its target CH0505_CON D7gp120/293i. Nature of the assay: ELISA.
A further assay addresses CH505.w30.12D8gp120. Nature of the assay: ELISA.
Another assay concerns the target CH505w020.14D8gp120. Nature of the assay: ELISA.

Chain of Scl-70 (P11387 whole entry): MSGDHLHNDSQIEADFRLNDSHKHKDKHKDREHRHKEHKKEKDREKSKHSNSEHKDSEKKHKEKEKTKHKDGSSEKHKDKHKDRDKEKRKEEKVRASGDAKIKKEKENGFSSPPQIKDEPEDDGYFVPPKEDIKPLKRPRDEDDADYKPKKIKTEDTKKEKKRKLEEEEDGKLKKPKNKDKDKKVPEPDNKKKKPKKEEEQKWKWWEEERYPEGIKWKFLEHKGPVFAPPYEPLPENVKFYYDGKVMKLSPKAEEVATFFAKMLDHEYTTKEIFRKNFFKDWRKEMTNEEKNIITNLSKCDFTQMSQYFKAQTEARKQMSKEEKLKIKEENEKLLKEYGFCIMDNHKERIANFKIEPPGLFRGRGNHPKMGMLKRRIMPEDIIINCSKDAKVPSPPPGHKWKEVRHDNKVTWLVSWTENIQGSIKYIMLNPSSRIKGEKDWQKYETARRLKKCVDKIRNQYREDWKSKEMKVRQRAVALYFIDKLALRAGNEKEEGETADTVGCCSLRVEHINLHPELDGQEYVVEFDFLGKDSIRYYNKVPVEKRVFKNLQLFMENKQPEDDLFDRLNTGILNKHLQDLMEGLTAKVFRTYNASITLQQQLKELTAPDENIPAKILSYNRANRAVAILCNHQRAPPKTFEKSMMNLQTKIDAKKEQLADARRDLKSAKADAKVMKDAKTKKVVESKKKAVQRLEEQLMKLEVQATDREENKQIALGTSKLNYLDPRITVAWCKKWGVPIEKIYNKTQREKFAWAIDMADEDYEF
Chain of Jo-1 (P12081 whole entry): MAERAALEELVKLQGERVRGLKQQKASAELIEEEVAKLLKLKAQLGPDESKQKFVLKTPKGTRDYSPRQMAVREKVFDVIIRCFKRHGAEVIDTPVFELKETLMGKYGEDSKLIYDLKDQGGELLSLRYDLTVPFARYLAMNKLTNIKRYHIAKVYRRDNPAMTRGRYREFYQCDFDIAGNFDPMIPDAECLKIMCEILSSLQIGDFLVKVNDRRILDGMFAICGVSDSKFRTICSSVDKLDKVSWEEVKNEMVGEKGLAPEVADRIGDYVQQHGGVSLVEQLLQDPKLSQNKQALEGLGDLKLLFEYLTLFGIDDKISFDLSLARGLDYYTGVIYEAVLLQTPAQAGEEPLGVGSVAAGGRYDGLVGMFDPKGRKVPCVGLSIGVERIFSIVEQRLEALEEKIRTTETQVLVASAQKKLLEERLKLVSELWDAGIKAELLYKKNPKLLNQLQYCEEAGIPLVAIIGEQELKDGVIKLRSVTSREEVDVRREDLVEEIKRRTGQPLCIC
Chain of Centromere B (P07199 whole entry): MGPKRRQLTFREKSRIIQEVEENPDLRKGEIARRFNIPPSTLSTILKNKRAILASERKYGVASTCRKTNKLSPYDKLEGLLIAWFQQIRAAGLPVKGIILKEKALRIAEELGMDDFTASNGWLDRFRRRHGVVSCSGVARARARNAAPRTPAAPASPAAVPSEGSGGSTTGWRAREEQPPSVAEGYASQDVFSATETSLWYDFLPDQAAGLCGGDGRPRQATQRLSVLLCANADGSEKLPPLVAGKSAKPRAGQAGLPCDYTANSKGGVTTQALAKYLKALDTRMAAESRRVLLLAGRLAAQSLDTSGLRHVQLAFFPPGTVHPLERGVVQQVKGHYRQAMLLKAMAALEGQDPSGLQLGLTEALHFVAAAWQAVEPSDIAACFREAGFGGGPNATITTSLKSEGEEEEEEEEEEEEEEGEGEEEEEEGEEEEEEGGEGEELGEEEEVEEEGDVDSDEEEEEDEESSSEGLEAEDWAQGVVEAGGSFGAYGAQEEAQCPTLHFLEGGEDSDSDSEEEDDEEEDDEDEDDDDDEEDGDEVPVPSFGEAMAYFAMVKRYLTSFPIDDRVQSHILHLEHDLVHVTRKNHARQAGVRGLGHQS

Take CH106 (antibody): the IC50 in [1] stood at 6.8 mg/L; in assay [2] it was 2.5 mg/L; in assay [7], 14.3 mg/L. The LogAUC in assay [3] was 12.7; in assay [4], 12.5; in assay [5] it was 12.3; with CH505.M21D8gp120/293F it was 11.5; in [6] it was 10.2; with CH505w030.20D8gp120/293F it was 7.25. Further, the LogAUC in the assay with CH0505_CON D7gp120/293i stood at 11.9; with CH505.w30.12D8gp120 it was 11.8; with CH505w020.14D8gp120 it was 11.2. For the same substance, the AtheNA signal (relative luminescence units) was found to be 10 in the assay with SSA; 4 in the assay with Jo-1; 6 in the assay with SSB; 1 with RNP (ribonucleoprotein); 5 with Sm (Smith antigen); 2 in the assay with Scl-70. Also, the AtheNA signal (relative luminescence units) with Centromere B is 1; with Histones it was 2.
